The values that follow come from publication PMC3040192.

What all share (test): mass spectrometry
Holding throughout (details): 37 °C (72 h incubation), 50 mM NaCl plus 50 mM buffer, 50 mM MES (pH 5.0-7.5) or 50 mM HEPES (pH 8.0-9.0), folded

Data set [1] concerns the target His114 (UniProt position 114, KLYLTHIDAEV).
The target of data set [2] is His45 (UniProt position 45, VIMGRHTWESI).
The target in data set [3] is His141 (UniProt position 141, VFSEFHDADAQ).
Data set [4] has as its target His124 (UniProt position 124, VEGDTHFPDYE).
Data set [5] concerns the target His149 (UniProt position 149, DAQNSHSYCFE).
[6] abbreviates: Ternary complex with folate and NADP+ (DHFR-folate-NADP+; five-fold molar excess of each ligand added during preparation).
The mark [7] stands for this setting: Ternary complex with methotrexate and NADPH (DHFR-MTX-NADPH; five-fold molar excess of each ligand added during preparation).
[8] abbreviates: Binary complex with methotrexate (DHFR-MTX; five-fold molar excess of MTX added during preparation).

With “Dihydrofolate reductase (DHFR) (Escherichia coli)”, the pKa is listed as 7.17 (±0.16) in data set [1] (setting [6]); 6.99 (±0.10) in data set [1] (setting [7]); 6.84 (±0.20) in data set [1] (apo-DHFR (no ligand)); 7.15 (±0.04) in data set [2] (setting [8]); 7.30 (±0.07) in data set [2] (setting [6]); 7.43 (±0.03) in data set [2] (setting [7]). The pKa is recorded as 6.99 (±0.07) in data set [2] (apo-DHFR (no ligand)); 8.12 (±0.14) in data set [3] (setting [8]); 8.14 (±0.11) in data set [3] (setting [6]); 8.29 (±0.10) in data set [3] (setting [7]); 8.04 (±0.08) in data set [3] (apo-DHFR (no ligand)); 7.02 (±0.06) in data set [4] (setting [8]). Further, the pKa in data set [4] (setting [6]) is on record as 7.61 (±0.19); in data set [4] (setting [7]), 7.17 (±0.20); in data set [4] (apo-DHFR (no ligand)), 7.60 (±0.03); in data set [5] (setting [8]), 6.13 (±0.13); in data set [5] (setting [6]), 6.84 (±0.17); in data set [5] (setting [7]), 6.17 (±0.10). The pKa in data set [5] (apo-DHFR (no ligand)) was 6.51 (±0.04).

The pKa is the pH at which an ionisable group is half protonated.
